Measured values: patent US20230285585A1, “TREATMENT OF PULMONARY HYPERTENSION” (PHILOGEN S.P.A., priority 2020, published 2023)
Entries after “also recorded” stand apart in the source; their conditions may differ.

Columns and labels:
[1] = Melting temperature (Protein Thermal Shift kit); format: physicochemical
Method: The melting temperature of the different mIL9 conjugates was determined using a StepOne real-Time PCR system in combination with the Protein Thermal Shift kit.

[2] = system: Monocrotaline (MCT) induced pulmonary hypertension (PH) in C57BL/6 mice; assay: Right heart catheterization in MCT induced PH mouse model (Example 3); format: in vivo
Text: (§1) Pulmonary Hypertension (PH) was induced in C57BL/6 mice (bodyweight: 25-30 g). The animals were obtained from ZET facility (Zentale Experimentelle Tierhaltung) of the University Hospital Jena (UKJ, Jena, Germany). Prior to PH induction, mice were allowed to acclimatize for at least 7 days with ad libitum access to food and water as well as controlled light/dark cycles. As shown in the overview of the experimental design and treatment schedule (FIG. 6), the following experimental groups were investigated: • sham induced controls (n=6) • MCT induced PH (n=8) • MCT induced PH+MACI (n=7) • MCT induced PH+F8(scFv)-mIL9-F8(scFv) (also named F8-IL9) (n=6) • MCT induced PH+KSF(scFv)-mIL9-KSF(scFv) (also named KSF-IL9) (n=6)
For PH induction, the Monocrotaline (MCT) method was used.
The sham induced controls were injected with 30 μl NaCl not containing MCT at day 1 (single dose; intraperitoneally, i.p.). […] The other 4 experimental groups were injected with MCT to induce PH (single dose; intraperitoneally, i.p.; 60 mg/kg body weight; volume 30 μl). Animals in the MCT induced PH+MACI group received the drug (Macitentan) from day 14 to day 28 (once daily; per os; 15 mg/kg body weight). […]
(§2) Statistical analyses were performed using IBM SPSS statistical software, version 25.0 (IBM SPSS Statistics for Windows. Armonk, N.Y., USA). Data are expressed as mean±standard deviation. […]

[3] = Storage stability (OD280, SEC, SDS-PAGE); format: physicochemical
Method: Storage stability of F8(scFv)-mIL9-F8(scFv) was assessed by size exclusion chromatography profile and analytical SDS-PAGE analysis of the protein after: a) incubation at 37° C. for 3, 5 and 7 days, b) incubation at 4° C. for 7 days and c) a series of 3 freeze and thaw cycles.

[4] = target: T1, recombinant fibronectin 11A12 domain (EDA) (Homo sapiens, UniProt P02751); assay: Biacore surface plasmon resonance binding analysis; conditions: SPR, BIAcore X100, CM5 chip coated with recombinant fibronectin 11A12 domain
T1 construct: recombinant fibronectin 11A12 domain
Method: Binding affinity was determined by surface plasmon resonance using a BIAcore X100 instrument using a CM5 chip coated with recombinant fibronectin 11A12 domain. Samples were injected as serial-dilution, using a concentration range from […] to 125 nM.

[5] = system: Monocrotaline (MCT) induced pulmonary hypertension (PH) in C57BL/6 mice; assay: Right heart catheterization in MCT induced PH mouse model (Example 4); format: in vivo; conditions: in contrast to KSF containing control immunocytokines
Text: To induce Pulmonary Hypertension (PH), C57BL/6 mice (bodyweight: 25-30 g) were used. The animals were obtained from ZET facility (Zentrale Experimentelle Tierhaltung) of the University Hospital Jena (UKJ, Jena, Germany). Prior to PH induction, mice were allowed to acclimatize for at least 7 days with ad libitum access to food and water as well as controlled light/dark cycles. In this set of experiments, 50 animals were investigated divided into the following 7 experimental groups: • sham induced controls (n=10) • MCT induced PH (n=8) • MCT induced PH+MACI (n=8) • MCT induced PH+F8mIL9F8 in CrAb format (n=6) • MCT induced PH+KSFmIL9KSF in CrAb format (n=6) • MCT induced PH+F8_(IgG-HC4)-mIL9 (n=6) • MCT induced PH+KSF_(IgG-HC4)-mIL9 (n=6)
For PH induction, the Monocrotaline (MCT, Carl Roth, Germany) method was used.
The sham induced controls were injected with 30 μl NaCl not containing MCT at day 1 (single dose; intraperitoneally, i.p.). […] The other 6 experimental groups were injected with MCT (single dose; intraperitoneally, i.p.; 60 mg/kg body weight; volume 30 μl). Animals in the MCT induced PH+MACI group received the drug (Macitentan, Actelion Pharmaceuticals Ltd.) from day 14 to day 28 (once daily; per os; 15 mg/kg body weight).
Animals in the MCT induced PH+F8mIL9F8 in CrAb format group received F8mIL9F8 3 times on days 14, 16 and 18 (intravenously, i.v.; 200 μg/injection; volume 154 μl). Animals in the MCT induced PH+KSFmIL9KSF in CrAb format group received KSFmIL9KSF 3 times on days 14, 16 and 18 (intravenously, i.v.; 198 μg/injection; volume 182 μl).
Animals in the MCT induced PH+F8_(IgG-HC4)-mIL9 group received F8_(IgG-HC4)-mIL9 3 times on days 14, 16 and 18 (intravenously, i.v.; 261 μg/injection; volume 137 μl). Animals in the MCT induced PH+KSF_(IgG-HC4)-mIL9 group received KSF_IgG-HC4mIL9 3 times on days 14, 16 and 18 (intravenously, i.v.; 258 μg/injection; volume 161 μl).
On day 28 after MCT injection, mice of all experimental groups were deeply anesthetized with a single dose of 100 mg/kg body weight ketamine and 10 mg/kg body weight Xylazin in approximately 60 μl each administered i.p.
Right heart catheterization using a 1.4 F micro conductance pressure-volume catheter (Model SPR-839; Millar Instruments Inc; PowerLab system, ADInstruments Ltd., Oxford, UK) was performed via the right vena jugularis interna to measure the systolic right ventricular pressure and thereby verify the success of the experimental setting. Mice were then sacrificed in deep anesthesia and analgesia to carry out cardiac blood collection after thoracotomy and to harvest the organs.
as §2

[6] = system: Monocrotaline (MCT) induced pulmonary hypertension (PH) in C57BL/6 mice; assay: Echocardiographic assessment in MCT induced PH mouse model (Example 3); format: in vivo; conditions: in contrast to untargeted KSF(scFv)-mIL9-KSF(scFv)
Text: as §1
For PH induction, the Monocrotaline (MCT) method was used. […]
(§3) Echocardiographic assessment was performed on day 28 (FIG. 6) using the Vevo 770 Rodent-Ultrasound-System, Visual Sonic, Canada, 17 MHz probe RMV176. […] Body temperature and respiratory rate were continuously monitored. All surrogate parameters of right ventricular (RV) morphology and function were assessed, among others, RV basal and medial diameters (in mm), RV length (in mm), and RV fractional area change (FAC, in %).
as §2

[7] = system: Monocrotaline (MCT) induced pulmonary hypertension (PH) in C57BL/6 mice; assay: Echocardiographic assessment in MCT induced PH mouse model (Example 4); format: in vivo; conditions: in contrast to KSF containing control immunocytokines
Method: To induce Pulmonary Hypertension (PH), C57BL/6 mice (bodyweight: 25-30 g) were used. The animals were obtained from ZET facility (Zentrale Experimentelle Tierhaltung) of the University Hospital Jena (UKJ, Jena, Germany). Prior to PH induction, mice were allowed to acclimatize for at least 7 days with ad libitum access to food and water as well as controlled light/dark cycles. […]
as §3, with “28” for “28 (FIG. 6)”, “tricuspid annular plane systolic excursion (TAPSE, in mm), right atrial” for “and RV fractional”, “(RA area,” for “change (FAC,”, “mm^2) or main pulmonary artery diameter (MPA, in mm).” for “%).”
as §2

T1 sequence (P02751 1629-1905 limits assumed): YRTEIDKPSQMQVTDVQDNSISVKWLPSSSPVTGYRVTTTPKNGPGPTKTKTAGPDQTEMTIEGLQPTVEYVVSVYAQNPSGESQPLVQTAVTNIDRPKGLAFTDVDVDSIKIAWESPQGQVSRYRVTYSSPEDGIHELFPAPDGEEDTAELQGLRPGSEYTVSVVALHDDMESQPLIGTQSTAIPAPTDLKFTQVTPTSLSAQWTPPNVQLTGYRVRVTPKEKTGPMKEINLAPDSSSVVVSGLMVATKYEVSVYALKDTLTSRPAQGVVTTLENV

B1: F8(scFv)-mIL9-F8(scFv): murine IL9 conjugated at N- and C-terminus to an F8 scFv via 10 amino acid linker, CrAb format; SEQ ID NO: 17 (protein)
chain: EVQLLESGGGLVQPGGSLRLSCAASGFTFSLFTMSWVRQAPGKGLEWVSAISGSGGSTYYADSVKGRFTISRDNSKNTLYLQMNSLRAEDTAVYYCAKSTHLYLFDYWGQGTLVTVSSGGGGSGGGGSGGGGEIVLTQSPGTLSLSPGERATLSCRASQSVSMPFLAWYQQKPGQAPRLLIYGASSRATGIPDRFSGSGSGTDFTLTISRLEPEDFAVYYCQQMRGRPPTFGQGTKVEIKSGGSGSGGGGQRCSTTWGIRDTNYLIENLKDDPPSKCSCSGNVTSCLCLSVPTDDCTTPCYREGLLQLTNATQKSRLLPVFHRVKRIVEVLKNITCPSFSCEKPCNQTMAGNTLSFLKSLLGTFQKTEMQRQKSRPSGGSGSGGGGEVQLLESGGGLVQPGGSLRLSCAASGFTFSLFTMSWVRQAPGKGLEWVSAISGSGGSTYYADSVKGRFTISRDNSKNTLYLQMNSLRAEDTAVYYCAKSTHLYLFDYWGQGTLVTVSSGGGGSGGGGSGGGGEIVLTQSPGTLSLSPGERATLSCRASQSVSMPFLAWYQQKPGQAPRLLIYGASSRATGIPDRFSGSGSGTDFTLTISRLEPEDFAVYYCQQMRGRPPTFGQGTKVEIK
modifications: F8(scFv)-mIL9-F8(scFv) (“CrAb” format)
increase in melting temperature compared with diabody formats F8(db)-mIL9 and mIL9-F8(db) [1]: ~3 °C
treatment effects relative to MACI (result in words) ([2]; MACI 15 mg/kg per os once daily day 14 to 28): at least comparable
pressure values in the right ventricle (result in words) ([2]; in contrast to untargeted KSF(scFv)-mIL9-KSF(scFv), 200 μg/injection i.v. days 14, 16, 18): significantly reduce
stability to freeze and thawing (protein concentration, SEC profile, SDS-PAGE) ([3]; 3 cycles of freeze and thawing): no loss of concentration, no changes in the size exclusion profile or SDS-PAGE analysis; also recorded: no loss of concentration
thermal stability over time (protein concentration, SEC profile, SDS-PAGE) ([3]; incubated at 4° for up to 7 days): no loss of concentration, no changes in the size exclusion profile or SDS-PAGE analysis; also recorded: no loss of concentration
thermal stability over time (protein concentration, SEC profile, SDS-PAGE) ([3]; incubated at 37° C. for up to 7 days): no loss of concentration, no changes in the size exclusion profile or SDS-PAGE analysis; also recorded: no loss of concentration
apparent KD [4]: in the nM range
pressure values in the right ventricle, RVPsys (result in words) [5]: significantly reduced
echocardiographic signs of right ventricular load and dysfunction (result in words) [6]: significantly improved the majority
echocardiographic signs of right ventricular load and dysfunction (result in words) [7]: significantly improved a variety
